According to patent publication US20120309696A1 (UNIVERSITY OF DENVER, published 2012):

Tests used:
[1] = target: T1, human melanocortin 2 receptor (hMC2R), V-5 epitope tagged, expressed on CHO cells co-transfected with mouse … (human, UniProt Q01718 1-297); assay: cell-based or functional assay
[2] = target: T1, human melanocortin 2 receptor (hMC2R), …; assay: cell-based or functional assay; remark: listed apart in the source

T1 sequence (Q01718 whole entry): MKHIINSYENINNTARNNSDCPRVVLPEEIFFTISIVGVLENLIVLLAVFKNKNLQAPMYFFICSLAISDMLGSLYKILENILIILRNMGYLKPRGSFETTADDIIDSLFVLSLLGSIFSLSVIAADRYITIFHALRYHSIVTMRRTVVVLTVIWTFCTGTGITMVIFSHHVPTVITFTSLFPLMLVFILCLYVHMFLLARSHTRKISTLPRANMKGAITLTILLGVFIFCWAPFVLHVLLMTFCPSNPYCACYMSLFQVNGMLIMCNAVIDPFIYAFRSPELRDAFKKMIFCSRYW

| fold decrease in potency in cAMP production against ACTH(1-24) [1] [fold] | fold decrease in MC2R activation relative to full-length ACTH (cAMP production in transfected CHO cells) [2] [fold] | Binder |
| --- | --- | --- |
| 1000 |  | SYSMEHFRWGKPVGAAAAAVKVYP [ACTH analog SYSMEHFRWGKPVGAAAAAVKVYP] |
|  | 100 | SYSMEHFRWGKPVGKKAAAVKVYP [ACTH analog SYSMEHFRWGKPVGKKAAAVKVYP] |
|  | 400 | SYSMEHFRWAAAAAKKRRPVKVYP [ACTH analog SYSMEHFRWAAAAAKKRRPVKVYP] |
|  | 100 | SYSMEHFRWGKPVGAARRPVKVYP [ACTH analog SYSMEHFRWGKPVGAARRPVKVYP] |
